Data: article doi:10.1101/2025.07.02.662585 (bioRxiv, 2025)

B4: Avo1 (natural protein)
chain: MDTVTVLNELRAQFLRVCPEKDQMKRIIKPYIPVDEFNTEQCLDSSIRELYMNSDGVSLLPELESPPVSKDFMENYASLGKMRIMRENEGQKGKANQNLIGAEKTERDEEETRNLQDKSAKNTLIVEENGTLRYNPLNSSASNSLLNDDDHTSGKHHKTSSKEDSYLNSSMEMQKKSSKRSSLPFVRIFKSRRDHSNTSGNKNVMNTTNTRAKSSTLHPPGARHNKKGSKFDMNFDFDENLEEEDDDDDDDEEGDDIHSQFFQLDDDFDAKGSGASPAHKGINGMSNNKNNTYTNNRNSISILDDRESSNGNIGSASRLKSHFPTSQKGKIFLTDNKNDGQKSDSLNANKGIHGDGSSASGNGSVSRDGLTETESNNISDMESYINEKDLDDLNFDTVTSNINKTVSDLGGHESTNDGTAVMNRDSKDSRSNSNEFNAQNRDRITPGSSYGKSLLGSEYSEERYSNNDSSTMESGEMSLDSDMQTNTIPSHSIPMSMQKYGIYHGDDDSTLNNVFDKAVLTMNSSRHPKERRDTVISGKEPTSLTSSNRKFSVSSNLTSTRSPLLRGHGRTSSTASSEHMKAPKVSDSVLHRARKSTLTLKQDHSQPSVPSSVHKSSKEGNILIEKTTDYLVSKPKASQLSNMFNKKKKRTNTNSVDVLEYFSFVCGDKVPNYESMGLEIYIQASKKYKRNSFTTKVRKSSTIFEVIGFALFLYSTEKKPDNFEEDGLTVEDISNPNNFSLKIVDEDGEPFEDNFGKLDRKSTIQSISDSEVVLCKVDDAEKSQNEIETPLPFETGGGLMDASTLDANSSHDTTDGTINQLSFYKPIIGNEDDIDKTNGSKIIDVTVYLYPNVNPKFNYTTISVLVTSHINDILVKYCKMKNMDPNEYALKVLGKNYILDLNDTVLRLDGINKVELISKKDARELHLEKMKPDLKKPVLPTIQSNDLTPLTLEPLNSYLKADAGGAVAAIPENTKVTSKAKKISTKYKLGLAKQHSSSSVASGSVSTAGGLANGNGFFKNKNSSKSSLHGTLQFHNINRSQSTMEHTPDTPNGVGDNFQDLFTGAYHKYKVWRRQQMSFINKHERTLAIDGDYIYIVPPEGRIHWHDNVKTKSLHISQVVLVKKSKRVPEHFKIFVRREGQDDIKRYYFEAVSGQECTEIVTRLQNLLSAYRMNHK

Key:
Avo3 = target: T1, Avo3 (yeast (endogenous in yeast cells), UniProt P40061 1-1430); experiment: cryo-EM structure
T1 sequence: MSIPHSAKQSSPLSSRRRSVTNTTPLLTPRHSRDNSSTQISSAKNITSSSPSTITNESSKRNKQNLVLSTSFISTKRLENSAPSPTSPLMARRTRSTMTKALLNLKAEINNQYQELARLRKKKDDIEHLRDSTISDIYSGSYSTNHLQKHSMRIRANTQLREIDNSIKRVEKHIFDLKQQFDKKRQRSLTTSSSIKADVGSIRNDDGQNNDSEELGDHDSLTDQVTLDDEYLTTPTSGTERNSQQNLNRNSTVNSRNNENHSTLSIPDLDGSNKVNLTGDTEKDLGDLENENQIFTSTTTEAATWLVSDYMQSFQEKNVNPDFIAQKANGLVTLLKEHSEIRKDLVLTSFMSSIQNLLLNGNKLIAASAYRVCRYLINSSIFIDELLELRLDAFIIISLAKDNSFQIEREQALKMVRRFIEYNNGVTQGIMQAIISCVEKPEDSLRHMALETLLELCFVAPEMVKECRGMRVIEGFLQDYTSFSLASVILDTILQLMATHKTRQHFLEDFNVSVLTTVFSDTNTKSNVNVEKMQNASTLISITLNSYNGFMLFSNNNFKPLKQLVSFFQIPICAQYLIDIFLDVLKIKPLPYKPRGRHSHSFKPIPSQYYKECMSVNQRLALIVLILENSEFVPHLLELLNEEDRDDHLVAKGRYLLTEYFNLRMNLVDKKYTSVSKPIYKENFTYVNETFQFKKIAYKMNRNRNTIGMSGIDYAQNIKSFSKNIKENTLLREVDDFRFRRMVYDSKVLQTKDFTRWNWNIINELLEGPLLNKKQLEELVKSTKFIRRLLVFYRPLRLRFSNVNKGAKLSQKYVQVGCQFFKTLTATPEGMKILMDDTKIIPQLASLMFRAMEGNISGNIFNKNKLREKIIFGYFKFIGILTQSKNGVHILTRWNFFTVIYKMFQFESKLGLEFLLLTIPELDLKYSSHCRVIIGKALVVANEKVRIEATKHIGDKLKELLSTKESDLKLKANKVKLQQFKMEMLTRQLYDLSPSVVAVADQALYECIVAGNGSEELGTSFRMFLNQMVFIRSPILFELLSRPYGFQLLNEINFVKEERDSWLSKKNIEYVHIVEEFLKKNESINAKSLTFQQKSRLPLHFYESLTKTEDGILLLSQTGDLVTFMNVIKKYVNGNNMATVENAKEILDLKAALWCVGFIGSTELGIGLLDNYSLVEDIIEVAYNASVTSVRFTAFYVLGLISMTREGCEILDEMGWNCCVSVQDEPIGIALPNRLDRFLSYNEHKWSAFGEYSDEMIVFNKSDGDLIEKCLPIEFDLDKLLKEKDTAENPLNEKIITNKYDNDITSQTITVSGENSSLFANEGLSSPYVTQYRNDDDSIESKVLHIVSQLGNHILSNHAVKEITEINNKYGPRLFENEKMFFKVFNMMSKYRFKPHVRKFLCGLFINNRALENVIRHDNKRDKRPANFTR

Avo1 = target: B4; experiment: cryo-EM structure

B1: Bit61 (natural protein)
chain: MTAEDILLRERTSTTTQRPVNSEQYLNVQLATAPVKNFQTTSEISRQTLVDTSNDDVYSIKNLKGSRNPISPSVSNVGFQSIFHTVDHPRSKVSVASNHSLRSNDNASAATSKSGSSQIGESHSVDTVECSNNLSKKLSSDAISITQKSLHSTPSGRYMKGKASGFFNRRNRAHTTISSDPASFLTDSSTLHNSSHSFRNVIKNFFQNKSHRHIGQDAIEPAIPNSLSKFLHSSYGRHKSPSQFIHTNAGQLVDSGTSVYSLNVNPSGVNPNTIVEDPLSGTDPASPNPVSMLHDLLRNLPSLEANYKHFNSQELTTLTNNIWNIFCSNVAELFRTQRIWKLRAKIENFNEVLEFYCILKTDPRVTHSGMNRIISDLKEFLVSSLYNLENQIVFNYSNEDTINNALKRLGVIWRIFYQEVYYDLAAVLLPLDQSIREDGNSTVLKSGNESRTHINGNYSIGFLLLMCFRDSIVLPCYENFVNSNDGISKSFQLYIFNQEEESNVTETDKLTLLQCFGILSTIQSNDRNQRIIEELLAGIRMSI
binding result (Avo3): binds

B2: Lst8 (natural protein)
chain: MSVILVSAGYDHTIRFWEALTGVCSRTIQHSDSQVNRLEITNDKKLLATAGHQNVRLYDIRTTNPNPVASFEGHRGNVTSVSFQQDNRWMVTSSEDGTIKVWDVRSPSIPRNYKHNAPVNEVVIHPNQGELISCDRDGNIRIWDLGENQCTHQLTPEDDTSLQSLSMASDGSMLAAANTKGNCYVWEMPNHTDASHLKPVTKFRAHSTYITRILLSSDVKHLATCSADHTARVWSIDDDFKLETTLDGHQRWVWDCAFSADSAYLVTASSDHYVRLWDLSTREIVRQYGGHHKGAVCVALNDV
binding result (Avo1): binds

B3: Avo2 (natural protein)
chain: MLKEPSVRLREAIIEGNLLIVKRLLRRNPDLLTNIDSENGWSSLHYASYHGRYLICVYLIQLGHDKHELIKTFKGNTCVHLALMKGHEQTLHLLLQQFPRFINHRGENGRAPIHIACMNDYYQCLSLLIGVGADLWVMDTNGDTPLHVCLEYGSISCMKMLLNEGEVSLDDNVRDKGNWKPIDVAQTFEVGNIYSKVLKEVKKKGPPLGAGKKPSSFRTPILNAKATFEDGPSPVLSMNSPYSLYSNNSPLPVLPRRISTHTTSGNGGNRRSSITNPVFNPRKPTLSTDSFSSSSNSSSRLRVNSINVKTPVGVSPKKELVSESVRHSATPTSPHNNIALINRYLLPNKSNDNVRGDSQTATINDDGGGGNGGDATIGMGLRKDPDDENENKYKIKVNNGEPRRRVSLLNIPISKLRNSNNTRAED
binding result (Avo3): binds

B4
binding result (Avo3): binds
